B1: anti-VISTA antibody 17E9 (antibody, IgG1, V domains shown)
VH: QVQLQQSGAELMKPGASVKISCTATGYTFSSCWIEWVKQRPGHGLEWLGEILPGSDYTNYNEKFKDKATFTADTSSDTAYMQLSSLTSEDSAVYYCARRPPGWYFDVWGAGTAVTVSS
VL: DIVMTQSHKFMSTSVGDRVSITCKASQDVSTDIAWYQQKPGQSPKLLIYSASYRFTGVPDRFTGSGSGTDFTFTISSVQAEDLAVYYCQHQYSTPWTFGGGTKLDIK
notes: Mouse monoclonal; Tested as hybridoma supernatant and as recombinant mIgG1
B2: anti-VISTA antibody 16A1 (antibody, IgG1, V domains shown)
VH: QVQLQQSGAELMKPGASVKISCKATGYTFSSSWIEWVKQRPGHGLEWIGEIFPGSGSLNFNEKFKGKATFTADTSSNTAYLQLSSLTSDDSAVYYCARRPPGWFFDVWGAGTTVTVSS
VL: B1 VL with S30T, I33V, F55Y, A84T, H90Q, Q91H, T94S, D105E
notes: as for B1
B3: anti-VISTA antibody 20E4 (antibody, IgG1, V domains shown)
VH: B2 VH with I34V, K38R, L58T, N59H, F60Y
VL: B1 VL with I33V, F55Y, H90Q, Q91H, D105E
notes: as for B1
B4: anti-VISTA antibody 9F9 (antibody, V domains shown)
VH: QVQFQQSGAELARPGASVKLSCKASGYTFTGYWMQWVKQRPGQGLEWIGAIYPGDGDTRYSQKFKGKVTLTADKSSSTAYMQLSSLASEDSAVYYCARRDYGAWFAYWGQGTLVTVSA
VL: DIKVTQSPSSMYASLGERVTITCKASQDINSYLSWFQQKPGKSPKTLIYRANRLVDGVPSRFSGSGSGQDYSLTISSLDYEDMGIYYCLQYDEFPYTFGGGTKLEIK
notes: Mouse monoclonal
B5: anti-VISTA antibody 15D11 (antibody, V domains shown)
VH: EVQLQQSGSELVKAGASVKLSCTASGFKIKDTFIHWVKQRPEQGLDWIGRIDPANGNSKYDPKFQGKATITADTSSNTAYLQLSSLTSEDTAVYYCARWPSNWEAMDYWGQGTSVTVSS
VL: QIVLTQSPAIMSASPGEKVTMTCSASSSVSYMYWYQQKPGSSPRLLIYDTSNLASGVPFRFSGSGSGTSYSLTISRMEAEDAATYYCQQWISYPLTFGTGTKLELK
notes: Mouse monoclonal from hybridoma

Numbering of substitutions follows the chain as printed. A value given as a limit tells only on which side of the number the result lay.

The first experiment has as its target T1, human VISTA full length on Jurkat cells (human, UniProt Q9H7M9 33-311).
T1 construct: also called Jurkat-hVISTA
T1 sequence: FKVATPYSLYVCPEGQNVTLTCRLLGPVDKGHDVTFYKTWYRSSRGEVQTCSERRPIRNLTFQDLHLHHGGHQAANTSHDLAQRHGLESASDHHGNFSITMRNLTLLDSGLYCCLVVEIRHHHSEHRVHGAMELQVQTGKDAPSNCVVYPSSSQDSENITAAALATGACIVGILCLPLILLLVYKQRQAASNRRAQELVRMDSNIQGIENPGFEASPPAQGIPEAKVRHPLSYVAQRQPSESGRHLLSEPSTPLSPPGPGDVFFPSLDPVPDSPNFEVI
In words: flow cytometry, hybridoma supernatant on Jurkat cells expressing human VISTA. How it is done: (§1) Human and mouse VISTA expressing Jurkat cells were cultured in RPMI1640 with 10% FBS. Cells were seeded into a 96 well plate at 1×10⁵ cells/well. Then the cells were incubated with anti-VISTA hybridoma supernatants for 30 minutes at 4° C. […] After washing with FACS buffer, the cells were incubated with Alexa Fluor 647 conjugated anti-mouse IgG(H+L)(1 μg/ml) (Jackson ImmunoResearch, Cat. #61505214) for 30 minutes at 4° C. After washing with FACS buffer twice, the samples were run in a NovoCyte Flow Cytometer (Agilent). Data was analyzed using the NovoExpress Software.
A general note: A flow cytometer gives signals particle by particle.
On to B1, for which the binding result is “binds”.
On the same count and under the same terms, with B2 the entry was “binds”; with B3, “binds”; with B4, “binds”.

In another experiment the target is T2, His-tagged mouse VISTA extracellular domain protein (in house) (mouse, UniProt Q9D659 33-191).
T2 construct: extracellular domain; also called mouse VISTA ECD; mVISTA; not shown: His tag
T2 sequence (looked up): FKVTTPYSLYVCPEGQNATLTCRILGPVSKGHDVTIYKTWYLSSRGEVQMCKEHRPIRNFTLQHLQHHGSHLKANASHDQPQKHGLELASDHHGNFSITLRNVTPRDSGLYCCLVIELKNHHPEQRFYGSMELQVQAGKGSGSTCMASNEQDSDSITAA
As to the kind of experiment: ELISA, hybridoma supernatant on coated mouse VISTA ECD (2 µg/mL). The method, then:
(§2) 50 μl of hybridoma supernatant was incubated with human VISTA ECD (2 μg/ml), mouse VISTA ECD (2 μg/mL), cynomolgus VISTA (2 μg/mL), or negative mouse IgG1 control coated on 96 well ELISA plates. Mouse anti-VISTA antibodies were detected by anti-mouse IgG-HRP (Jackson ImmunoResearch, Cat. # 615035214).
On the technique in general: An ELISA detects its analyte on a solid surface through an enzyme-linked reagent.
In the case of B5, the binding result is recorded as “binds”.
Same read-out and setting: with B1 the entry was “binds”.
Turning to B3, the binding result is reported as “binds”.
For B4, the binding result is “binds”.

The target in the next experiment is human VISTA extracellular transmembrane-CD3zeta chimera on Jurkat-nfkb-GFP reporter cells (human, UniProt P20963 52-164). As to the kind of experiment: cell-based or functional assay.
As for B5, the “percentage of activated Jurkat-NFKb-GFP/hVISTA-hCD3z cells in the presence of OKT3 (3 ng/ml)” value is at most 60%.
In the case of B4, the “percentage of activated Jurkat-NFKb-GFP/hVISTA-hCD3z cells in the presence of OKT3 (3 ng/ml)” value is above 60%.

Another experiment has as its target T3, His-tagged human VISTA extracellular domain protein (in house) (human, UniProt Q9H7M9 33-194).
T3 construct: also called human VISTA ECD; hVISTA; not shown: His tag
T3 sequence: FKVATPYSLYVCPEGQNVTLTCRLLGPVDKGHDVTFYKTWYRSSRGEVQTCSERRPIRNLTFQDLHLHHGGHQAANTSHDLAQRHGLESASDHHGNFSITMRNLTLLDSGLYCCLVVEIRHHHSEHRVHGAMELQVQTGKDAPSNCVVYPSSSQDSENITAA
In words: ELISA, hybridoma supernatant on coated human VISTA ECD (2 µg/ml). How it is done: as §2
B5: the binding result was “binds”.
The same measure, in the same setting: with B1 the entry was “binds”; with B2, “binds”; with B3, “binds”.
Regarding B4, the binding result is “binds”.

The target in the next experiment is T4, mouse VISTA full length on Jurkat cells (mouse, UniProt Q9D659 33-308).
T4 construct: whole, on cells; also called Jurkat-mVISTA
T4 sequence (looked up): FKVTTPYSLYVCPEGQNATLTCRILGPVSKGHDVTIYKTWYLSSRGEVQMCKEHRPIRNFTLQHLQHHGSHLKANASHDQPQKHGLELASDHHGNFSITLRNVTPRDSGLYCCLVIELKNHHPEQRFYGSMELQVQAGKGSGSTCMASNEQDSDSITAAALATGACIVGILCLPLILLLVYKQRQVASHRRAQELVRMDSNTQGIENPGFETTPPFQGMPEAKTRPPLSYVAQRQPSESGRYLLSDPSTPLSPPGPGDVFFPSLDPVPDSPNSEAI
In words: flow cytometry, hybridoma supernatant on Jurkat cells expressing mouse VISTA. The method, then:
as §1
Consider B1, for which the binding result was “binds”.
For B3, the binding result is given as “binds”.
The same measure, in the same setting: as for B4, the entry is “binds”.

Source of the values: patent publication US20240141048A1 (DYNAMICURE BIOTECHNOLOGY, published 2024).
